From US20240010730A1 (SHANGHAI HUAOTA BIOPHARMACEUTICAL, published 2024)
Where two headings read alike, the source gives them in different places.

T1: histidine-tagged (His-Tag) human TIGIT protein (huTIGIT, ACRO Biosystems, #TIT-H52H3) (human, UniProt Q495A1 22-141)
T1 construct: Bought reagent; not shown: His tag
T1 sequence (looked up): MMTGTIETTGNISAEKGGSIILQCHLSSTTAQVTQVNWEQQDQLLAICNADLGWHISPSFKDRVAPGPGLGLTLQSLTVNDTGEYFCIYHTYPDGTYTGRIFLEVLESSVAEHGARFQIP

T2: human TIGIT on CHOK1-huTIGIT-2A3 cells (human, UniProt Q495A1 22-244)
T2 construct: whole, on cells; also called cells expressing the human TIGIT
T2 sequence (looked up): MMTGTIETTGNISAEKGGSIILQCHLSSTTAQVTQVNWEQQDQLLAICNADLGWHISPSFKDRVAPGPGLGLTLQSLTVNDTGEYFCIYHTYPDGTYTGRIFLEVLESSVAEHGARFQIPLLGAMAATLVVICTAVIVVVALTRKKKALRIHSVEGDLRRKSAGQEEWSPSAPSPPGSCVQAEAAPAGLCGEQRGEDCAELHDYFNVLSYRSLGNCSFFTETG

T3: Human TIGIT (SPR analyte, Example 7) (human, UniProt Q495A1 22-141, limits assumed)
T3 sequence (looked up): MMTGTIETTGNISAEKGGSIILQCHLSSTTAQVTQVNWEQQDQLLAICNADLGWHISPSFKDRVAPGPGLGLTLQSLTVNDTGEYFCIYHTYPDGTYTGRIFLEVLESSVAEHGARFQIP

T4: human TIGIT (hybridoma screening, Table 1) (human, UniProt Q495A1 22-141, limits assumed)
T4 sequence (looked up): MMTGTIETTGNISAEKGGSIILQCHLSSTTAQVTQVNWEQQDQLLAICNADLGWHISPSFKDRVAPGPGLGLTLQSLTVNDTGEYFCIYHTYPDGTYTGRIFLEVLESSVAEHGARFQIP


Columns and labels:
[1] = target: T1, histidine-tagged (His-Tag) human TIGIT …; assay: SPR (Biacore 8K), antibody captured on Protein A chip, huTIGIT-His analyte, 1:1 model
Procedure: This test determined the antigen-antibody binding kinetics and affinity by using an SPR method. BIOCORE (GE, #Biacore 8K) was used. […] An antibody sample was diluted using an equilibration buffer to an experimental working concentration, and sealed at 2-8° C. for later use. The antigen, namely, the histidine-tagged (His-Tag) human TIGIT protein (huTIGIT, ACRO Biosystems, #TIT-H52H3), was diluted with an equilibration buffer HBS-EP (10×) (GE, #BR-1006-69). Starting at 20 nM, the antigen was diluted by 2.5-fold for 5 concentration gradients, and 2 replications were set up for zero concentration (i.e., the equilibration buffer) and the lowest concentration. The chip was regenerated with pH1.5 glycine solution (GE, #BR100354).

[2] = target: T2, human TIGIT on CHOK1-huTIGIT-2A3 cells; assay: flow cytometry on CHOK1-huTIGIT-2A3 cells
Procedure: All chimeric antibodies and humanized antibodies were diluted to 20 μg/ml with 1% BSA in PBS solution (1% BSA/PBS), were added to a 96-well U-shaped plate at 20 μL per well; and a negative control (with 1% BSA/PBS added only) was set up at the same time. The suspension of cells (CHOK1-huTIGIT-2A3, Huabo Biopharm) expressing human TIGIT during the logarithmic growth phase were centrifuged (1000 rpm×5 min) to discard the culture medium; and the cells were resuspended with 1% BSA/PBS until the density of viable cells was 1×10⁶/mL, and were added, at 20 μL (2×10⁴ cells) per well, to the 96-well U-shaped plate with the anti-TIGIT antibody to react for 30 min at room temperature. After reaction, the 96-well U-shaped plate was resuspended with 1% BSA/PBS, centrifuged (300 g×3 min) to discard the supernatant, and washed once in such a way; and PE-goat anti-human-Fc (Jackson ImmunoResearch, #109-115-098) diluted at 1:200 was added to react for 15 min in the dark at room temperature. After reaction, the 96-well U-shaped plate was resuspended with 1% BSA/PBS, centrifuged (300 g×3 min) to discard the supernatant, washed three times in such a way, and finally resuspended with 100 μL of 1% BSA/PBS for each wall; and the fluorescence intensity of a PE channel was detected with a flow cytometer (BD, #CantoII).

[3] = target: T3, Human TIGIT (SPR analyte, Example 7); assay: SPR (Biacore 8K), antibody captured by anti-human chip, antigen analyte, 1:1 model
Procedure: (§1) The Anti-Human Capture-CMS chip (GE, #BR-1005-30) was prepared according to the method for conjugating the Human Antibody Capture Kit (GE, #BR-1008-39) to the Amino Conjugation Kit (GE, BR-1000-50).

[4] = target: T2, human TIGIT on CHOK1-huTIGIT-2A3 cells; assay: flow cytometry competition with huCD155-moFc on CHOK1-huTIGIT-2A3 cells
Procedure: After reaction, the 96-well U-shaped plate was resuspended with 1% BSA/PBS, centrifuged (300 g×3 min) to discard the supernatant, and washed once in such way; and Alexa488-goat anti-mouse-Fc (Jackson ImmunoResearch, #115-545-071) diluted at 1:300 was added to react for 15 min in the dark at room temperature. After reaction, the 96-well U-shaped plate was resuspended with 1% BSA/PBS, centrifuged (300 g×3 min) to discard the supernatant, washed three times in such a way, and finally resuspended with 100 μL of 1% BSA/PBS for each wall; and the fluorescence intensity of an FITC channel was detected with a flow cytometer (BD, #CantoII).

[5] = target: T3, Human TIGIT (SPR analyte, Example 7); assay: SPR (Biacore 8K), antibody captured by anti-human chip, antigen analyte, 1:1 model; remark: listed apart in the source
Procedure: as §1

[6] = target: TIGIT on Jurkat-TIGIT-22G8 cells; assay: cell-based or functional assay
[7] = target: Human PD-L1 (SPR analyte, Example 7) (human, UniProt Q9NZQ7 19-238, limits assumed); assay: SPR (Biacore 8K), antibody captured by anti-human chip, antigen analyte, 1:1 model
Human PD-L1 (SPR analyte, Example 7), sequence (Q9NZQ7 19-238 limits assumed): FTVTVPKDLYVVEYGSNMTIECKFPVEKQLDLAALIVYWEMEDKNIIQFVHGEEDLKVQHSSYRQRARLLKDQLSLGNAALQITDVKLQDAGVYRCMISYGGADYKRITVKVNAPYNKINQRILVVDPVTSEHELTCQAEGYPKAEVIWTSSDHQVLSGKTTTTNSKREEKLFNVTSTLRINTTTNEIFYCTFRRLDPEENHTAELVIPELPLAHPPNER
Procedure: as §1

[8] = target: PD-L1 on CHO-K1-0S8-PD-L1-8D6 cells; assay: cell-based or functional assay
PD-L1 on CHO-K1-0S8-PD-L1-8D6 cells, sequence (Q9NZQ7 whole entry): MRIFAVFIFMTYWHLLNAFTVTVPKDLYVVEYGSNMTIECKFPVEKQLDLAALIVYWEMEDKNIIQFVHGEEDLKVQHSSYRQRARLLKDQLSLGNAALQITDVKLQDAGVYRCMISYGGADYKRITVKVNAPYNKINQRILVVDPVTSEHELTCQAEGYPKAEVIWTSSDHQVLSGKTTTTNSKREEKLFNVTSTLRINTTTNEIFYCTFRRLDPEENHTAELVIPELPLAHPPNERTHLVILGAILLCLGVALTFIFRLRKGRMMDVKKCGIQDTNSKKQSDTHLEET

[9] = target: T4, human TIGIT (hybridoma screening, Table …); assay: Biacore (SPR), hybridoma screening

Binder | Kd [1] [nM] | koff [1] [s⁻¹] | kon [1] [M⁻¹ s⁻¹] | EC50 [2] [µg/mL] | Kd [3] [nM] | koff [3] [s⁻¹] | kon [3] [M⁻¹ s⁻¹] | IC50 [4] [µg/mL] | Kd [5] [nM] | koff [5] [s⁻¹] | kon [5] [M⁻¹ s⁻¹] | EC50 (nM), IL2 secretion of Jurkat-TIGIT-22G8 cells with PHA and CD155 [6] [nM] | Kd [7] [nM] | koff [7] [s⁻¹] | kon [7] [M⁻¹ s⁻¹] | EC50 (nM), luciferase reporter, Jurkat-NFAT-PD-1-5B8 cells with CHO-K1-0S8-PD-L1-8D6 cells [8] [nM] | Kd [9] [nM]
900693 (bispecific antibody, human IgG1, kappa, also called PD-L1-IgG-TIGIT-scFv) heavy: not shown light: DVVMTQTPLSLSVTPGQPASISCKSSQSLANSYGNTYLSWYLHKPGQSPQLLIYGISNRFSGVPDRFSGSGSGTDFTLKISRVEAEDVGVYYCLQGTHQPPTFGQGTKLEIKRTVAAPSVFIFPPSDEQLKSGTASVVCLLNNFYPREAKVQWKVDNALQSGNSQESVTEQDSKDSTYSLSSTLTLSKADYEKHKVYACEVTHQGLSSPVTKSFNRGEC |  |  |  |  | 0.0863 | 8.03e-05 | 930000 |  |  |  |  |  | 2.27 | 0.000498 | 219000 | 1.98 | 
B3/29F6 (antibody, V domains shown, Mouse hybridoma antibody) VH: DVQLQESGPGLVKPSQSLSLTCTVTGYSITSDYAWIWIRQFPGNKVEWMGYITSSGSTSYNPSLKSRISFTRDTSKNQFFLQLTSVTTEDTATYYCARLDFGNYGGAMDYWGQGTSVTVSS VL: DIVMTQSHKFMSTSIGDRVSITCKASQHVSTAVAWYQQKPGQSPKLLIYSASYRYTGVPDRFTGSRSGTDFTFTISSVQAEDLAVYYCQQHYITPYTFGGGTKLEIK |  |  |  |  |  |  |  |  |  |  |  |  |  |  |  |  | 0.0139

Continued, values first:

Kd [1] [nM] | koff [1] [s⁻¹] | kon [1] [M⁻¹ s⁻¹] | EC50 [2] [µg/mL] | Kd [3] [nM] | koff [3] [s⁻¹] | kon [3] [M⁻¹ s⁻¹] | IC50 [4] [µg/mL] | Kd [5] [nM] | koff [5] [s⁻¹] | kon [5] [M⁻¹ s⁻¹] | EC50 (nM), IL2 secretion of Jurkat-TIGIT-22G8 cells with PHA and CD155 [6] [nM] | Kd [7] [nM] | koff [7] [s⁻¹] | kon [7] [M⁻¹ s⁻¹] | EC50 (nM), luciferase reporter, Jurkat-NFAT-PD-1-5B8 cells with CHO-K1-0S8-PD-L1-8D6 cells [8] [nM] | Kd [9] [nM] | Binder
0.0583 | 0.000185 | 3.17e+06 | 0.0466 | 0.0345 | 0.000167 | 4.82e+06 | 0.0573 | 0.0346 | 0.000175 | 5.07e+06 | 5.82 |  |  |  |  |  | HB0030 (antibody, human IgG1, kappa, V domains shown, Humanized anti-TIGIT IgG1; also called 900461; TIGIT parental monoclonal antibody) VH: QVQLQESGPGLVKPSETLSLTCTVSGYSITSDYAWIWIRQPPGKGLEWIGYITSSGSTYYNPSLKSRVTFSVDTSKNQFSLKLSSVTAADTATYYCARLDFGNYGGAMDYWGQGTLVTVSS VL: DIQMTQSPSSLSASVGDRVTITCRASQHVSTAVNWYQQKPGKAPKLLIYSASYLYSGVPSRFSGSRSGTDFTLTISSLQPEDFATYYCQQHYITPYTFGQGTKLEIKR
 |  |  |  | 0.0751 | 9.11e-05 | 1.21e+06 |  |  |  |  |  | 2.79 | 0.00057 | 204000 | 2.09 |  | 900692 (bispecific antibody, human IgG1, kappa, also called PD-L1-IgG-TIGIT-scFv) heavy: not shown light: DVVMTQTPLSLSVTPGQPASISCKSSQSLANSYGNTYLSWYLHKPGQSPQLLIYGISNRFSGVPDRFSGSGSGTDFTLKISRVEAEDVGVYYCLQGTHQPPTFGQGTKLEIKRTVAAPSVFIFPPSDEQLKSGTASVVCLLNNFYPREAKVQWKVDNALQSGNSQESVTEQDSKDSTYSLSSTLTLSKADYEKHKVYACEVTHQGLSSPVTKSFNRGEC
